Values quoted from earlier work as cited in PMC8463260 (Acta Pharmaceutica Sinica. B, 2020).

Legend:
[1] = multimerization and serum albumin association; ref [5],[6]
[2] = in vitro bioactivity compared to native insulin; ref [26],[28]-[31]

Substance | in vivo half-life [1] | in vitro potency, fold lower vs native insulin [2]
insulin detemir: long-acting insulin derivative with hydrophobic modification on B29 lysine | 20 to 48 h | –
insulin degludec | – | 6–8 fold
